This is an account of results in IntAct's records for PubMed 23105096.

The chains are these.
B1: Ras-related protein Rab-26 (Homo sapiens), Q9ULW5 (parent)
chain: MSRKKTPKSKGASTPAASTLPTANGARPARSGTALSGPDAPPNGPLQPGRPSLGGGVDFYDVAFKVMLVGDSGVGKTCLLVRFKDGAFLAGTFISTVGIDFRNKVLDVDGVKVKLQMWDTAGQERFRSVTHAYYRDAHALLLLYDVTNKASFDNIQAWLTEIHEYAQHDVALMLLGNKVDSAHERVVKREDGEKLAKEYGLPFMETSAKTGLNVDLAFTAIAKELKQRSMKAPSEPRFRLHDYVKREGRGASCCRP

Variants of B1 are the subject of the first assay. The note with it: with ada2b_human ADRA2B.
In the case of MSRKKTPKSKGASTPAASTLPTANGARPARSGTALSGPDAPPNGPLQPGRPSLGGGVDFYDVAFKVMLVGDSGVGKTCLLVRFKDGAFLAGTFISTVGIDFRNKVLDVDGVKVKLQMWDTAGQERFRSVTHAYYRDAHALLLLYDVTNKASFDNIQAWLTEIHEYAQHDVALMLLGIKVDSAHERVVKREDGEKLAKEYGLPFMETSAKTGLNVDLAFTAIAKELKQRSMKAPSEPRFRLHDYVKREGRGASCCRP [N177I], the “effect of a mutation on the interaction” value is listed as “decreasing interaction strength”.

In the case of MSRKKTPKSKGASTPAASTLPTANGARPARSGTALSGPDAPPNGPLQPGRPSLGGGVDFYDVAFKVMLVGDSGVGKNCLLVRFKDGAFLAGTFISTVGIDFRNKVLDVDGVKVKLQMWDTAGQERFRSVTHAYYRDAHALLLLYDVTNKASFDNIQAWLTEIHEYAQHDVALMLLGNKVDSAHERVVKREDGEKLAKEYGLPFMETSAKTGLNVDLAFTAIAKELKQRSMKAPSEPRFRLHDYVKREGRGASCCRP [T77N], the “effect of a mutation on the interaction” value is recorded as “decreasing interaction strength”.

Variants of B1 are the subject of the next assay. The note with it: with ada2b_human ADRA2B. This is another data set of the same source.
In the case of MSRKKTPKSKGASTPAASTLPTANGARPARSGTALSGPDAPPNGPLQPGRPSLGGGVDFYDVAFKVMLVGDSGVGKTCLLVRFKDGAFLAGTFISTVGIDFRNKVLDVDGVKVKLQMWDTAGQERFRSVTHAYYRDAHALLLLYDVTNKASFDNIQAWLTEIHEYAQHDVALMLLGIKVDSAHERVVKREDGEKLAKEYGLPFMETSAKTGLNVDLAFTAIAKELKQRSMKAPSEPRFRLHDYVKREGRGASCCRP [N177I], the “effect of a mutation on the interaction” value is listed as “disrupting interaction strength”.
